Assay results taken from patent US20180030151A1 (MOGAM INSTITUTE FOR BIOMEDICAL RESEARCH, published 2018).
Where a chain is given by its changes, count along the chain named. Like-named read-outs stand apart in the source and are kept apart here. Values belong to the binder of their own block, whether it stands above or below them.

How the values were obtained:
Experiment in all cases: cell-based or functional assay
[1] = target: T1, recombinant human TFPI (tissue factor pathway inhibitor) (human, UniProt P10646 29-304)
[2] = target: T1, recombinant human TFPI (tissue factor …); remark: listed apart in the source
[3] = target: T1, recombinant human TFPI (tissue factor …); remark: listed apart in the source
[4] = target: T1, recombinant human TFPI (tissue factor …); remark: listed apart in the source
[5] = target: T1, recombinant human TFPI (tissue factor …); remark: listed apart in the source
[6] = target: T1, recombinant human TFPI (tissue factor …); remark: listed apart in the source
[7] = target: T1, recombinant human TFPI (tissue factor …); remark: listed apart in the source
[8] = target: T1, recombinant human TFPI (tissue factor …); remark: listed apart in the source
[9] = target: T1, recombinant human TFPI (tissue factor …); remark: listed apart in the source
[10] = target: T1, recombinant human TFPI (tissue factor …); remark: listed apart in the source

effect of inhibiting TFPI, FXa activity assay, Ab 10 nM [1]: ~67% | effect of inhibiting TFPI, FXa activity assay, Ab 20 nM [1]: ~79% | A405, TF/FVIIa/FX complex assay, Ab 1.56 nM [2]: 0.154 | A405, TF/FVIIa/FX complex assay, Ab 3.13 nM [2]: 0.177 | A405, TF/FVIIa/FX complex assay, Ab 6.25 nM [2]: 0.196 | A405, TF/FVIIa/FX complex assay, Ab 12.5 nM [2]: 0.29 | A405, TF/FVIIa/FX complex assay, Ab 25 nM [2]: 0.914 | A405, TF/FVIIa/FX complex assay, Ab 50 nM [2]: 0.895 | A405, TF/FVIIa/FX complex assay, Ab 100 nM [2]: 0.907 | % of Normalized, TF/FVIIa/FX complex assay, Ab 1.56 nM [3]: 16.1% | % of Normalized, TF/FVIIa/FX complex assay, Ab 3.13 nM [3]: 18.5% | % of Normalized, TF/FVIIa/FX complex assay, Ab 6.25 nM [3]: 20.5% | % of Normalized, TF/FVIIa/FX complex assay, Ab 12.5 nM [3]: 30.3% | % of Normalized, TF/FVIIa/FX complex assay, Ab 25 nM [3]: 95.8% | % of Normalized, TF/FVIIa/FX complex assay, Ab 50 nM [3]: 93.7% | % of Normalized, TF/FVIIa/FX complex assay, Ab 100 nM [3]: 95% | A405, TF/FVIIa/FX complex assay, Ab 1.56 nM [4]: 0.149 | A405, TF/FVIIa/FX complex assay, Ab 3.13 nM [4]: 0.172 | A405, TF/FVIIa/FX complex assay, Ab 6.25 nM [4]: 0.195 | A405, TF/FVIIa/FX complex assay, Ab 12.5 nM [4]: 0.33 | A405, TF/FVIIa/FX complex assay, Ab 25 nM [4]: 0.908 | A405, TF/FVIIa/FX complex assay, Ab 50 nM [4]: 0.938 | A405, TF/FVIIa/FX complex assay, Ab 100 nM [4]: 0.947 | % of Normalized, TF/FVIIa/FX complex assay, Ab 1.56 nM [5]: 16.3% | % of Normalized, TF/FVIIa/FX complex assay, Ab 3.13 nM [5]: 18.7% | % of Normalized, TF/FVIIa/FX complex assay, Ab 6.25 nM [5]: 21.3% | % of Normalized, TF/FVIIa/FX complex assay, Ab 12.5 nM [5]: 36.1% | % of Normalized, TF/FVIIa/FX complex assay, Ab 25 nM [5]: 99.2% | % of Normalized, TF/FVIIa/FX complex assay, Ab 50 nM [5]: 102% | % of Normalized, TF/FVIIa/FX complex assay, Ab 100 nM [5]: 104% | FXa assay % of FXa alone, 2.5 nM Ab, 10 nM TFPI [6]: 9.2% | FXa assay % of FXa alone, 5 nM Ab, 10 nM TFPI [6]: 41.9% | FXa assay OD, 2.5 nM Ab, 10 nM TFPI [6]: 0.0745 | FXa assay OD, 5 nM Ab, 10 nM TFPI [6]: 0.338 | FXa assay OD, 10 nM Ab, 10 nM TFPI [6]: 0.543 | FXa assay OD, 20 nM Ab, 10 nM TFPI [6]: 0.637 | FXa assay % of FXa alone, 2.5 nM Ab, 10 nM TFPI [7]: 8% | FXa assay % of FXa alone, 5 nM Ab, 10 nM TFPI [7]: 28.8% | FXa assay % of FXa alone, 10 nM Ab, 10 nM TFPI [7]: 63.5% | FXa assay % of FXa alone, 20 nM Ab, 10 nM TFPI [7]: 75.8% | FXa assay OD, 2.5 nM Ab, 10 nM TFPI [7]: 0.065 | FXa assay OD, 5 nM Ab, 10 nM TFPI [7]: 0.234 | FXa assay OD, 10 nM Ab, 10 nM TFPI [7]: 0.516 | FXa assay OD, 20 nM Ab, 10 nM TFPI [7]: 0.616
B1: clone A67 (antibody, V domains shown)
VH: EVQLVESGGGLVKPGGSLRLSCAASGFTFSSYAMNWVRQAPGKGLEWVSTITTGGSYTYYADSVEGRFTISRDNAKNSLYLQMNSLRAEDTAVYYCARQDGNFLMDYWGQGTLVTVSS
VL: DVVMTQTPLSLPVTLGQPASISCKSSQSLLDLDGKTYLNWLQQRPGQSPKRLIYLVSKLDSGVPDRFTGSGSGTDFTLKISRVEAEDVGVYYCWQGTHFPFTFGQGTKVEIKR

effect of inhibiting TFPI, FXa activity assay, Ab 10 nM [1]: ~70% | effect of inhibiting TFPI, FXa activity assay, Ab 20 nM [1]: ~81% | A405, TF/FVIIa/FX complex assay (FX 5 nM), Ab 1.56 nM [8]: 0.045 | A405, TF/FVIIa/FX complex assay (FX 5 nM), Ab 3.13 nM [8]: 0.046 | A405, TF/FVIIa/FX complex assay (FX 5 nM), Ab 6.25 nM [8]: 0.059 | A405, TF/FVIIa/FX complex assay (FX 5 nM), Ab 12.5 nM [8]: 0.141 | A405, TF/FVIIa/FX complex assay (FX 5 nM), Ab 25 nM [8]: 0.527 | A405, TF/FVIIa/FX complex assay (FX 5 nM), Ab 50 nM [8]: 0.743 | A405, TF/FVIIa/FX complex assay (FX 5 nM), Ab 100 nM [8]: 0.842 | % of Normalized, TF/FVIIa/FX complex assay (FX 5 nM), Ab 1.56 nM [9]: 5.6% | % of Normalized, TF/FVIIa/FX complex assay (FX 5 nM), Ab 3.13 nM [9]: 5.7% | % of Normalized, TF/FVIIa/FX complex assay (FX 5 nM), Ab 6.25 nM [9]: 7.2% | % of Normalized, TF/FVIIa/FX complex assay (FX 5 nM), Ab 12.5 nM [9]: 17.4% | % of Normalized, TF/FVIIa/FX complex assay (FX 5 nM), Ab 25 nM [9]: 65.1% | % of Normalized, TF/FVIIa/FX complex assay (FX 5 nM), Ab 50 nM [9]: 91.8% | % of Normalized, TF/FVIIa/FX complex assay (FX 5 nM), Ab 100 nM [9]: 104% | FXa assay % of FXa alone, 2.5 nM Ab, 10 nM TFPI [10]: 10.8% | FXa assay % of FXa alone, 5 nM Ab, 10 nM TFPI [10]: 45.5% | FXa assay OD, 2.5 nM Ab, 10 nM TFPI [10]: 0.0825 | FXa assay OD, 5 nM Ab, 10 nM TFPI [10]: 0.346 | FXa assay OD, 10 nM Ab, 10 nM TFPI [10]: 0.536 | FXa assay OD, 20 nM Ab, 10 nM TFPI [10]: 0.618
B2: clone 3 (antibody, V domains shown)
VH: B1 VH with S49G, Y57H, E65D
VL: B1 VL with Q27P, L32V

A405, TF/FVIIa/FX complex assay, Ab 1.56 nM [4]: 0.147 | A405, TF/FVIIa/FX complex assay, Ab 3.13 nM [4]: 0.162 | A405, TF/FVIIa/FX complex assay, Ab 6.25 nM [4]: 0.173 | A405, TF/FVIIa/FX complex assay, Ab 12.5 nM [4]: 0.208 | A405, TF/FVIIa/FX complex assay, Ab 25 nM [4]: 0.424 | A405, TF/FVIIa/FX complex assay, Ab 50 nM [4]: 0.934 | A405, TF/FVIIa/FX complex assay, Ab 100 nM [4]: 0.932 | % of Normalized, TF/FVIIa/FX complex assay, Ab 1.56 nM [5]: 16.1% | % of Normalized, TF/FVIIa/FX complex assay, Ab 3.13 nM [5]: 17.7% | % of Normalized, TF/FVIIa/FX complex assay, Ab 6.25 nM [5]: 18.9% | % of Normalized, TF/FVIIa/FX complex assay, Ab 12.5 nM [5]: 22.7% | % of Normalized, TF/FVIIa/FX complex assay, Ab 25 nM [5]: 46.3% | % of Normalized, TF/FVIIa/FX complex assay, Ab 50 nM [5]: 102% | % of Normalized, TF/FVIIa/FX complex assay, Ab 100 nM [5]: 102% | FXa assay % of FXa alone, 2.5 nM Ab, 10 nM TFPI [7]: 6.2% | FXa assay % of FXa alone, 5 nM Ab, 10 nM TFPI [7]: 13.5% | FXa assay % of FXa alone, 10 nM Ab, 10 nM TFPI [7]: 48.5% | FXa assay % of FXa alone, 20 nM Ab, 10 nM TFPI [7]: 68% | FXa assay OD, 2.5 nM Ab, 10 nM TFPI [7]: 0.0505 | FXa assay OD, 5 nM Ab, 10 nM TFPI [7]: 0.11 | FXa assay OD, 10 nM Ab, 10 nM TFPI [7]: 0.394 | FXa assay OD, 20 nM Ab, 10 nM TFPI [7]: 0.552
B3: clone 3203 (antibody, V domains shown)
VH: B1 VH with N35S
VL: B1 VL
